{"source": "IntAct's records for PubMed 10433268", "parents": {"B1": {"name": "Disks large-associated protein 1 (Rattus norvegicus (Rat)), P97836-5 (parent)", "chain": "MIDLFKAEWVSSVCVQVSRNGRTDQVWVPQDEWTGYTPRGKDDEIPCRRMRSGSYIKAMGDEDSGDSDTSPKPSPKVAARRESYLKATQPSLTELTTLKISNEHSPKLQIRSHSYLRAVSEVSINRSLDSLDPAGLLTSPKFRSRNESYMRAMSTISQVSEMEVNGQFESVCESVFSELESQAVEALDLPMPGCFRMRSHSYVRAIEKGCSQDDECVSLRSSSPPRTTTTVRTIQSSTGVIKLSSAVEAQSSTESAQDAYMDGQGQRGDMISQSGLSNSTESLDSMKALTAAIEAANAQIHGPASQHMGSNAAAVTTTTTIATVTTEDRKKDFKKNRCLSIGIQVDDAEESEKMAESKTSSKFQSVGVQVEEEKCFRRFTRSNSVTTAVQADLDFHDNLENSLESIEDNSCPGPMARQFSRDASTSTVSIQGSGNHYHACAADDDFDTDFDPSILPPPDPWIDSITEDPLEAVQRSVCHRDGHWFLKLLQAERDRMEGWCKQMEREERENNLPEDILGKIRTAVGSAQLLMAQKFYQFRELCEENLNPNAHPRPTSQDLAGFWDMLQLSIENISMKFDELHQLKANNWKQMDPLDKKERRAPPPVPKKPAKGPAPLIRERSLESSQRQEARKRLMAAKRAASVRQNSATESAESIEIYIPEAQTRL"}}, "data": [{"variants_of": "B1", "conditions": "with Shank1, Q9WV48-4", "values": [{"variant": "T664A", "effect of a mutation on the interaction": "disrupting interaction"}, {"variant": "T664S", "effect of a mutation on the interaction": "decreasing interaction"}, {"variant": "R665D", "effect of a mutation on the interaction": "decreasing interaction"}, {"variant": "L666A", "effect of a mutation on the interaction": "disrupting interaction"}, {"variant": "L666V", "effect of a mutation on the interaction": "decreasing interaction"}]}]}
